Values of other authors as cited in patent US20150246140A1, “COMPOSITIONS AND METHODS FOR MODULATING SLEEP AND WAKEFULNESS” (California Institute of Technology, priority 2014, published 2015).

Tests used:
[1] = target: T1, NPR-22 (Caenorhabditis elegans, UniProt Q59E83); settings: FLP-13 peptides P1-P9, FIG. 6 legend
T1 sequence (Q59E83 1-434): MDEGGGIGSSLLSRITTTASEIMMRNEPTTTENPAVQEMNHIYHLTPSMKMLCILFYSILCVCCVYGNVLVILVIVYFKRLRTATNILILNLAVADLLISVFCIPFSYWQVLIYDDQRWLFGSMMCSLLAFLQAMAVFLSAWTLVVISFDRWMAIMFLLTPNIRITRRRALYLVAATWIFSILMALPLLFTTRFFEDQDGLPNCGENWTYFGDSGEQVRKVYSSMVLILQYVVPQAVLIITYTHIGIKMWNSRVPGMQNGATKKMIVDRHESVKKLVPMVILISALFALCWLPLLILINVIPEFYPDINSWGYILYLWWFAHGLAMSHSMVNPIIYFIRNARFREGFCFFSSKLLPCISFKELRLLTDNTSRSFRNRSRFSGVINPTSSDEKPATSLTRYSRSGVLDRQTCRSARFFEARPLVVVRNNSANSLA

[2] = system: A. suum muscle strips; settings: FLP-13 peptides P1-P9, FIG. 6 legend

| Sequence | activate calcium response via NPR-22 using the fluorescence assay [1] | effect on A. suum muscle strips [2] |
| --- | --- | --- |
| SAAAPLIRF [C. elegans RFamide peptide of gene flp-13] | can activate calcium response |  |
| SPSAVPLIRF [C. elegans RFamide peptide of gene flp-13] | can activate calcium response | excitatory effect |
| APEASPLIRF [C. elegans RFamide peptide of gene flp-13; P3 and P5 are repeated copies] |  | inhibitory effects |
| ASSAPLIRF [C. elegans RFamide peptide of gene flp-13] | can activate calcium response |  |
| ASPSAPLIRF [C. elegans RFamide peptide of gene flp-13] | can activate calcium response |  |
| AADGAPLIRF [C. elegans RFamide peptide of gene flp-13; P2 and P4 are repeated copies] | can activate calcium response | inhibitory effects |
